Experiment [1] concerns the target purified recombinant α-thrombin (human) (UniProt P00734). As to the kind of experiment: cell-based or functional assay.
Experiment [2] concerns the target purified α-thrombin derived from plasma (human) (UniProt P00734). As to the kind of experiment: cell-based or functional assay.

As for antithrombin III, the Inhibition by ATIII: Secondary reaction constant in experiment [1] came to 0.57 µM⁻¹ min⁻¹; in experiment [2], 0.65 µM⁻¹ min⁻¹.

The record behind these values is patent US20040197858A1.
